From publication PMC2173746

Molecular target: LSm7 (UniProt Q9UK45)
Test: two-hybrid

UniProt Q9UK45, sequence (Q9UK45 whole entry): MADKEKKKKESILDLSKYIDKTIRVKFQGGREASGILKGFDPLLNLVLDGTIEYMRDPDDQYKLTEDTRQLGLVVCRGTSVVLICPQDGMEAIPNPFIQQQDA

## SART3/p110 with the CT10 domain deleted (from UniProt Q15020 1-950) (domain or fragment)
  fold reduction of the two-hybrid interaction against full-length SART3/p110: 2 fold
